Experimental data reported in PMC10965808, “The alternative coproporphyrinogen III oxidase (CgoN) catalyzes the oxygen-independent conversion of coproporphyrinogen III into coproporphyrin III” (Frontiers in Microbiology, 2024).

How the values were obtained:
YtpQ (CgoN) = molecular target: T1, YtpQ (CgoN) (Priestia megaterium, UniProt D5DN20); experiment: fluorescence assay, stimulation of activity by added FAD; assay type: biochemical; details: 3 μM FAD; 1 μM enzyme; 10 μM coproporphyrinogen III; anaerobic; pH 7.2; 30°C; no menadione
T1 construct: gene BMD_4814; full length, 270 residues; codon-adapted synthetic gene in pGEX-6P-1, N-terminal GST tag cut off with PreScission protease; E. coli BL21(DE3); calculated 30,781 Da; monomer (35 kDa by GPC)
T1 sequence (D5DN20 1-270): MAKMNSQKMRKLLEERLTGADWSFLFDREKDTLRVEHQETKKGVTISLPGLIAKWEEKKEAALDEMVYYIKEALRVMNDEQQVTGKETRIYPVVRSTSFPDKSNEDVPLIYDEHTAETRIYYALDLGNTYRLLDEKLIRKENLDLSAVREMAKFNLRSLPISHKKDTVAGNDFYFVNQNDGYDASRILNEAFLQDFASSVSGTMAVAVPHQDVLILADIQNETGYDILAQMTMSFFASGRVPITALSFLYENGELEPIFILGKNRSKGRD

purified protein = substrate: Cc1c2[nH]c(c1CCC(=O)O)Cc1[nH]c(c(CCC(=O)O)c1C)Cc1[nH]c(c(CCC(=O)O)c1C)Cc1[nH]c(c(C)c1CCC(=O)O)C2; experiment: purified protein; assay type: biochemical, Priestia megaterium; details: anaerobic, 3 μM FAD, 5 μM menadione as electron acceptor, 1 μM enzyme, 1-20 μM substrate, HEPES pH 7.2, 0.02% Tween 80, 30°C

With `Cc1cc2nc3c(=O)[nH]c(=O)nc-3n(C[C@H](O)[C@H](O)[C@H](O)COP(=O)(O)OP(=O)(O)OC[C@H]3O[C@@H](n4cnc5c(N)ncnc54)[C@H](O)[C@@H]3O)c2cc1C` [FAD] the “fluorescence assay, stimulation of activity by added FAD” value (YtpQ (CgoN)) was “FAD was identified as the electron-transferring cofactor of YtpQ”.

B1: YtpQ (CgoN) (Priestia megaterium DSM 319) (protein)
chain: MAKMNSQKMRKLLEERLTGADWSFLFDREKDTLRVEHQETKKGVTISLPGLIAKWEEKKEAALDEMVYYIKEALRVMNDEQQVTGKETRIYPVVRSTSFPDKSNEDVPLIYDEHTAETRIYYALDLGNTYRLLDEKLIRKENLDLSAVREMAKFNLRSLPISHKKDTVAGNDFYFVNQNDGYDASRILNEAFLQDFASSVSGTMAVAVPHQDVLILADIQNETGYDILAQMTMSFFASGRVPITALSFLYENGELEPIFILGKNRSKGRD
notes: full length, 270 residues; codon-adapted synthetic gene in pGEX-6P-1, N-terminal GST tag cut off with PreScission protease; E. coli BL21(DE3); calculated 30,781 Da; monomer (35 kDa by GPC)
With B1 the Km (purified protein) was 3.95 µM and the kcat (purified protein) was 0.0105 s⁻¹.
